This passage reports geometric mean FL2 and binding ratio to cells (%) results from US20150139990A1.

Test [1] deals with human CD81 on CD81-expressing cells (Jurkat E6.1, human PBMC, Ramos) (human) (UniProt P60033). Put plainly: flow cytometry, Ramos cells, 0.01 µg/mL. (A flow cytometer gives signals particle by particle.)
For test [2] the target is unchanged. Put plainly: flow cytometry, Ramos cells, 1 µg/mL.
Test [3] has the same target. The experiment in a line: flow cytometry, Jurkat cells, 0.1 µg/mL.
For test [4] the target is unchanged. The experiment in a line: flow cytometry, Jurkat cells, 10 µg/mL.
For test [5] the target is unchanged. Put plainly: flow cytometry, Ramos cells, 0.1 µg/mL.
Test [6] has the same target. The experiment in a line: flow cytometry, Ramos cells, 10 µg/mL.
Test [7] has the same target. Put plainly: flow cytometry, Jurkat cells, 0.01 µg/mL.
Test [8] has the same target. Put plainly: flow cytometry, Jurkat cells, 1 µg/mL.
For test [9] the target is unchanged. The experiment in a line: flow cytometry, Jurkat E6.1 cells.
The target is the same in test [10]. Put plainly: flow cytometry, human PBMC.

Chain of human CD81 on CD81-expressing cells (Jurkat E6.1, human PBMC, Ramos) (human) (P60033 whole entry): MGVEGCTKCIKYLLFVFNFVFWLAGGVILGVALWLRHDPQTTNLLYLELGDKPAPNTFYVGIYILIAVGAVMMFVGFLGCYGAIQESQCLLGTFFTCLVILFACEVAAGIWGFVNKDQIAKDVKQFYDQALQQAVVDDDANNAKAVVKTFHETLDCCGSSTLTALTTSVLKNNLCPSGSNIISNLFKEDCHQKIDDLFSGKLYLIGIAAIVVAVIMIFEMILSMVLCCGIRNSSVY

Consider “control human IgG (AbD Serotec) (antibody)”, for which the geometric mean FL2 in test [1] worked out at 4; in test [2] it was 5; in test [3] it was 4; in test [4], 8; in [5] it was 4; in [6], 8. For the same substance, the geometric mean FL2 in test [7] and in test [8] was 4 throughout.

control human IgG4 (Acris) (antibody): the binding ratio to cells (%) in test [9] and in test [10] was 1% throughout.
